Several values for one entry are separate records, joined by “and”; a condition that tells them apart may be missing. Equal values may be shown once.

In this test the target is CD16 expressed by Jurkat-CD16 cells (UniProt P08637). Kind of test: flow cytometry on cells.
UniProt P08637, sequence (P08637 17-254): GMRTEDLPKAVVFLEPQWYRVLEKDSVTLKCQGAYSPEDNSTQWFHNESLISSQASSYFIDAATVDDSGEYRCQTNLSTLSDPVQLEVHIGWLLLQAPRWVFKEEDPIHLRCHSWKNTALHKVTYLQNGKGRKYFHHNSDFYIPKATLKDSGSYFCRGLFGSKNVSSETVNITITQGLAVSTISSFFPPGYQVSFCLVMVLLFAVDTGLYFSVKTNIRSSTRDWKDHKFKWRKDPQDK

Turning to “goat-produced cetuximab (gCetuximab) (antibody)”, the MFI of bound competitor anti-CD16-PE/3G8 is 25.1 and 28.1 and 21.8.

The values are drawn from PMC7655094.
